Source: US20260167684A1 (MERIDA BIOSCIENCES, published 2026)
Numbering of substitutions follows the chain as printed. In names and notes the source's numbering stands. Blank lines part the entries; values can stand above or below the binder they belong to.

Tests used:
FcγRIIB [1] = target: T1, FcγRIIB (human, UniProt P31994 46-217, limits assumed); test: SPR; molecule captured on CM5 chip, FcγR as analyte; steady-state fit
T1 construct: Soluble protein used in SPR
T1 sequence (looked up): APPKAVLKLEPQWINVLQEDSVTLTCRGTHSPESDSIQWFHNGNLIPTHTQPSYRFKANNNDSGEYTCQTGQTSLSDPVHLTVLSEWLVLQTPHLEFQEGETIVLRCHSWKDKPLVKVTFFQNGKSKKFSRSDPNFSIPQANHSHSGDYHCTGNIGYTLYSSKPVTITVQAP
Method: (§1) Binding assays using SPR were performed to determine the binding affinity of the exemplary molecules. Molecules were captured on a CM5 SPR chip. Increasing concentrations of FcγR analyte (FcγRIIA167H, FcγRIIA167R or FcγRIIB) were subsequently injected over the captured molecules and a single dissociation performed using single cycle kinetics. The data was then analyzed using steady state analysis which is suitable for low affinity interactions. In particular, a plot of response at equilibrium against the molecule concentration was generated.

FcγRIIA167H [2] = target: T2, FcγRIIA167H (UniProt P12318 36-218); test: SPR, molecule captured on the sensor chip, FcγRIIA167H as analyte
T2 construct: Soluble protein used in SPR
T2 sequence (looked up): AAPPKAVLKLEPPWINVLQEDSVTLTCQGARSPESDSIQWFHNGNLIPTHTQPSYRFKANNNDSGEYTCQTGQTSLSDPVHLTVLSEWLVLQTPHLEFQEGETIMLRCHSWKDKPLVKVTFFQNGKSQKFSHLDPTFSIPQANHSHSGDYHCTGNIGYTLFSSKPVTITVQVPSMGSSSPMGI
Method: as §1

FcγRIIA167R [3] = target: T3, FcγRIIA167R (UniProt P12318 36-218); test: SPR, molecule captured on the sensor chip, FcγRIIA167R as analyte
T3 construct: Soluble protein used in SPR
T3 sequence (looked up): T2 sequence (looked up) with H132R
Method: as §1

human C1q = target: T4, human C1q (human, UniProt P02745 23-245; P02746 28-253; P02747 29-245); test: ELISA (n=2), serial dilutions of the molecule coated on the plate, human C1q at 5 µg/mL, anti-C1q HRP detection
T4 construct: also called complement (C1q)
Method: An IgG4 was used as a negative control.
Varying dilutions of each exemplary molecule or one of the controls were tested for binding to C1q by ELISA where serial dilutions of molecules or controls were coated on a plate (at 0.01 μg/mL, 0.1 μg/mL, 1.0 μg/mL, 10.0 μg/mL, 100.0 μg/mL, and 1000 μg/mL) overnight at 4 C. After blocking and subsequent wash steps, human C1q at 5 μg/mL was added to the ELISA plate for 1 hour at room temperature. The plate was washed and a sheep polyclonal anti-C1q HRP antibody at 1:200 dilution was added and incubated for an additional 1 hour. Development of the ELISA plate was carried out by addition of TMB. Color development was then stopped with addition of 3N HCl. Plate absorbance was read at 450 nm using a plate ready.

FcγRIIB [4] = target: T1, FcγRIIB; test: SPR, molecule captured on the sensor chip, FcγRIIB as analyte; steady state plot of response against analyte concentration
[5] = target: T5, FcγRIIB expressed on cells (CHO-FcγRIIB+ cells; primary human cells that express FcγRIIB) (human, UniProt P31994 43-310); test: flow cytometry, CHO cells expressing FcγRIIB, molecule pre-complexed with M22-PE at 1:1 or 4:1 molar ratio, with and without anti-FcγRIIB antibody 2B6
T5 construct: whole, on cells; also called FcγRIIB-expressing CHO cells
T5 sequence (looked up): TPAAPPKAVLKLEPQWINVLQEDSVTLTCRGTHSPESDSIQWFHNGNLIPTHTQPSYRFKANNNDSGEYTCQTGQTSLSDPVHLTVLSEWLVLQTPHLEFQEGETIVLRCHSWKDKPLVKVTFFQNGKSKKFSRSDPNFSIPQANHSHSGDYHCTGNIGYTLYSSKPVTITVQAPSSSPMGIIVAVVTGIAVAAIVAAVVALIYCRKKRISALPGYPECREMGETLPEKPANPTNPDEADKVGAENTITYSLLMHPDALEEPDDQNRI
Method: Cells expressing FcγRIIB are seeded in a 96-well plate and stained with Live/Dead Violet Fixable Dye. Next, the pre-complexed molecule and autoantibody are incubated with the cells at various concentrations at either 4C (to assess binding) or 37C (to assess uptake). After incubation, cells are washed with PBS (binding) or acidic media to remove surface-bound complexes (uptake). Cellular fluorescence is determined by flow cytometry.

FcγRIIA167R [6] = target: T3, FcγRIIA167R; test: SPR; molecule captured on CM5 chip, FcγR as analyte; steady-state fit
Method: as §1

FcγRIIA167H [7] = target: T2, FcγRIIA167H; test: as above
Method: as §1

T4 sequence (P02745 23-245 limits assumed, chain 1 of 3): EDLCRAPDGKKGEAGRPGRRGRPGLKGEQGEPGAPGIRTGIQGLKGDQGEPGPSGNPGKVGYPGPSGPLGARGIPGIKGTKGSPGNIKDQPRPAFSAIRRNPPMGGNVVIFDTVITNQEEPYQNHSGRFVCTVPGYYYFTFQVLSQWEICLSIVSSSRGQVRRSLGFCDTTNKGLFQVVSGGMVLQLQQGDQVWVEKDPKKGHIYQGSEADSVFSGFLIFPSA
T4 sequence (P02746 28-253 limits assumed, chain 2 of 3): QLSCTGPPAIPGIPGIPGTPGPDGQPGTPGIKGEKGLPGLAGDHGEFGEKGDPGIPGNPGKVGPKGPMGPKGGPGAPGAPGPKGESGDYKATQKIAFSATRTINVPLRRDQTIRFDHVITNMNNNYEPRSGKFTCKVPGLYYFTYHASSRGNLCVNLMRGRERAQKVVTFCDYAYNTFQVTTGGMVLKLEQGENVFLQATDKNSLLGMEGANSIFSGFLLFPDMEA
T4 sequence (P02747 29-245 limits assumed, chain 3 of 3): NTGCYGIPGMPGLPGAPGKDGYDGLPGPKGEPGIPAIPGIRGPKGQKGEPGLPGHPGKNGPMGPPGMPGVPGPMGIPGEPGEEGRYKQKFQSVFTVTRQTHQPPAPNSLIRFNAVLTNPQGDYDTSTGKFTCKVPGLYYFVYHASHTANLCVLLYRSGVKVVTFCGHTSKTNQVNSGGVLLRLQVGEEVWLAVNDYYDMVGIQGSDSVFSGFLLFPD

B1: Variant G2 (Fc fusion)
chain 1: MGCSSPPCECHQEEDFRVTCKDIQRIPSLPPSTQTLKLIETHLRTIPSHAFSNLPNISRIYVSIDVTLQQLESHSFYNLSKVTHIEIRNTPNLTYIDPDALKELPLLKFLGIFNTGLKMFPPLTKVYSTDIFFILEITDNPYMTSIPRNAFQGLCNETLTLKLYNNGFTSVQGYAFNGTKLDAVYLNKNKYLTVIDKDAFGGVYSGPSLLDVSQTSVTALPSKGLEHLKELRARNTWTLDKTHTCPPCPAPVDFRDPLVFLFPPKPKDTLMISRTPEVTCVVVDVDPEDPEVKFNWYVDGVEVHNAKTKPQEEQYNGAYRVVSVLTVLHQDWLNGKEYKCKVSNKLAPHPIIKTISKAKGQPREPQVYTLPPCRDELTKNQVSLWCLVKGFYPSDIAVEWESNGQPENNYKTTPPVLDSDGSFFLYSKLTVDKSRWQQGNVFSCSVMHEALHNHYTQKSLSLSPGK
chain 2: DKTHTCPPCPAPVDFRDPLVFLFPPKPKDTLMISRTPEVTCVVVDVDPEDPEVKFNWYVDGVEVHNAKTKPQEEQYNGAYRVVSVLTVLHQDWLNGKEYKCKVSNKLAPHPIIKTISKAKGQPREPQVCTLPPSRDELTKNQVSLSCAVKGFYPSDIAVEWESNGQPENNYKTTPPVLDSDGSFFLVSKLTVDKSRWQQGNVFSCSVMHEALHNHYTQKSLSLSPGK
notes: Knob-in-hole heterodimer; also called TSHR260 2P2R huIgG1 Fc E233V/L234D/L235F/G236R/G237D/S239L/S267D/R292Q/H268P/S298G/T299A/A327L/L328A/A330H/E333I
- Kd (FcγRIIB [1]): 2610 nM
- binding result (FcγRIIA167H [2]): no binding (tested: about 2.4e-6 M)

B2: Variant G1 (Fc fusion)
chain 1: B1 chain 1 with Q311R
chain 2: B1 chain 2 with Q72R
notes: Knob-in-hole heterodimer; also called TSHR260 2P2R huIgG1 Fc E233V/L234D/L235F/G236R/G237D/S239L/S267D/H268P/S298G/T299A/A327L/L328A/A330H/E333I
- Kd (FcγRIIB [1]): 2620 nM
- binding result (FcγRIIA167H [2]): no binding (tested: about 2.4e-6 M)

B3: Variant G3 (Fc fusion)
chain 1: B1 chain 1 with D286S
chain 2: B1 chain 2 with D47S
notes: Knob-in-hole heterodimer; also called TSHR260 2P2R huIgG1 Fc E233V/L234D/L235F/G236R/G237D/S239L/H268P/R292Q/S298G/T299A/A327L/L328A/A330H/E333I
- Kd (FcγRIIB [1]): 3650 nM
- binding result (FcγRIIA167R [3]): no binding (tested: about 2.4e-6 M)
- binding result (FcγRIIA167H [2]): no binding (tested: about 2.4e-6 M)

B4: Variant E3 (Fc fusion)
chain 1: MGCSSPPCECHQEEDFRVTCKDIQRIPSLPPSTQTLKLIETHLRTIPSHAFSNLPNISRIYVSIDVTLQQLESHSFYNLSKVTHIEIRNTPNLTYIDPDALKELPLLKFLGIFNTGLKMFPPLTKVYSTDIFFILEITDNPYMTSIPRNAFQGLCNETLTLKLYNNGFTSVQGYAFNGTKLDAVYLNKNKYLTVIDKDAFGGVYSGPSLLDVSQTSVTALPSKGLEHLKELRARNTWTLDKTHTCPPCPAPELLGGDSVFLFPPKPKDTLMISRTPEVTCVVVDVSHEDPEVKFNWYVDGVEVHNAKTKPREEQYNSTYRVVSVLTVLHQDWLNGKEYKCKVSNKALPAPIEKTISKAKGQPREPQVYTLPPCRDELTKNQVSLWCLVKGFYPSDIAVEWESNGQPENNYKTTPPVLDSDGSFFLYSKLTVDKSRWQQGNVFSCSVLHEALHSHYTQKSLSLSPGK
chain 2: DKTHTCPPCPAPELLGGDSVFLFPPKPKDTLMISRTPEVTCVVVDVSHEDPEVKFNWYVDGVEVHNAKTKPREEQYNSTYRVVSVLTVLHQDWLNGKEYKCKVSNKALPAPIEKTISKAKGQPREPQVCTLPPSRDELTKNQVSLSCAVKGFYPSDIAVEWESNGQPENNYKTTPPVLDSDGSFFLVSKLTVDKSRWQQGNVFSCSVLHEALHSHYTQKSLSLSPGK
notes: Knob-in-hole heterodimer; also called TSHR260 2P2R huIgG1 Fc P238D/LS; TSHR260 2P2R huIgG1 with P238D and LS
- binding result (human C1q): no binding (tested: 100 µg/mL)
- binding result (FcγRIIB [4]): binds
- binding result [5]: binds

B5: Variant G13 (Fc fusion)
chain 1: B4 chain 1 with G256D, D289E, P290G, A349R, D375E, L377M, L447M, S453N
chain 2: B4 chain 2 with G17D, D50E, P51G, A110R, D136E, L138M, L208M, S214N
notes: Knob-in-hole heterodimer; also called TSHR260 2P2R huIgG1 Fc G237D/P238D/D270E/P271G/A330R
- Kd (FcγRIIB [1]): 127 nM
- Kd (FcγRIIA167R [6]): 1790 nM

B8: Variant G6 (Fc fusion)
chain 1: B4 chain 1 with L253D, G255N, D257P, S286E, L447M, S453N
chain 2: B4 chain 2 with L14D, G16N, D18P, S47E, L208M, S214N
notes: Knob-in-hole heterodimer; also called TSHR260 2P2R huIgG1 Fc L234D/G236N/S267E
- Kd (FcγRIIB [1]): 335 nM
- binding result (FcγRIIA167H [2]): no binding (tested: about 2.4e-6 M)

Further binders by falling Kd (FcγRIIB [1]), results first:

- Kd (FcγRIIB [1]): 55.6 nM
- Kd (FcγRIIA167R [6]): 836 nM
B9: Variant G4 (Fc fusion)
chain 1: B4 chain 1 with E252D, G256D, H287D, P290G, A349R, L447M, S453N
chain 2: B4 chain 2 with E13D, G17D, H48D, P51G, A110R, L208M, S214N
notes: Knob-in-hole heterodimer; also called TSHR260 2P2R huIgG1 Fc E233D/G237D/P238D/H268D/P271G/A330R

- Kd (FcγRIIB [1]): 30.9 nM
- Kd (FcγRIIA167R [6]): 4.32 nM
- Kd (FcγRIIA167H [7]): 114 nM
B6: Variant G14 (Fc fusion)
chain 1: B4 chain 1 with D257P, S258D, H287D, L347W, L447M, S453N
chain 2: B4 chain 2 with D18P, S19D, H48D, L108W, L208M, S214N
notes: Knob-in-hole heterodimer; also called TSHR260 2P2R huIgG1 Fc S239D/H268D/L328W

- Kd (FcγRIIB [1]): 22.3 nM
- Kd (FcγRIIA167R [6]): 369 nM
- Kd (FcγRIIA167H [7]): 3810 nM
B7: Variant G12 (Fc fusion)
chain 1: B4 chain 1 with G256D, P290G, A349R, D375E, L377M, L447M, S453N
chain 2: B4 chain 2 with G17D, P51G, A110R, D136E, L138M, L208M, S214N
notes: Knob-in-hole heterodimer; also called TSHR260 2P2R huIgG1 Fc G237D/P238D/P271G/A330R
